Data published in the supplement of paper PMC7877785.
± gives the uncertainty stated by the source.

Assay: self-splicing fitness, log relative to wild type (ln ratio); higher = more splicing; Tetrahymena group I intron in knt gene, E. coli kanamycin selection, DiMSum; sequences stand for … in CUCUCU…GGAGGGAAAAGUUAUCAGGCAUGCACCUGGUAGCUAGUCUUUAAACCAAUAGAUUGCAUCGGUUUAAAAGGCAAGACCGUCAAAUUGCGGGAAAGGGGUCAACAGCCGUUCAGUACCAAGUCUCAGGGGAAACUUUGAGAUGGCCUUGCAAAGGGUAUGGUAAUAAGCUGACGGACAUGGUCCUAACCACGCAGCCAAGUCCUAAGUCAACAGAUCUUCUGUUGAUAUGGAUGCAGUUCACAGACUAAAUGUCGGUCGGGGAAGAUGUAUUCUUCUCAUAAGAUAUAGUCGGACCUCUCCUUAAUGGGAGCUAGCGGAUGAAGUGAUGCAACACUGGAGCCGCUGGGAACUAAUUUGUAUGCGAAAGUAUAUUGAUUAGUUUUGGAGUACUCGUGGUCG
Method in brief: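 DiMSum derived fitness as the error-weighted combination of fold changes across replicates, kanamycin versus no kanamycin, normalised to wild type. E. coli BL21(DE3) held the library, which randomised all eight P1ex-region intron nucleotides within the knt kanamycin-resistance gene on pET-22b(+). Six replicate transformations grew overnight at 37°C or 30°C on LB agar with or without 25 μg/mL kanamycin, also containing 100 μg/mL carbenicillin, 50 μM IPTG and 0.2% rhamnose, and pooled colonies were amplicon-sequenced on an Illumina HiSeq 2500.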

Sequence	self-splicing fitness (ln) (30 °C)	self-splicing fitness (ln) (37 °C)
CUGUAGCAAUAUUACGGGUG	-0.818 ± 0.084	-1.15 ± 0.099
GUGUAGCAAUAUUACGAGGG	-3.38 ± 0.44	-2.99 ± 0.47
GAUAAGCAAUAUUACGCUAA	-2.41 ± 0.24	-2.28 ± 0.32
UAUGAGCAAUAUUACGAGUG	-1.52 ± 0.095	-0.43 ± 0.11
CACAAGCAAUAUUACGUUAG	-1.37 ± 0.052	-0.63 ± 0.062
CGCAAGCAAUAUUACGCAUC	-2.57 ± 0.12	-2.66 ± 0.12
CGUCAGCAAUAUUACGCAUG	-1.06 ± 0.07	0.0876 ± 0.082
UAAGAGCAAUAUUACGCGAA	-2.74 ± 0.22	-1.6 ± 0.16
AACUAGCAAUAUUACGUUUC	-3.35 ± 0.18	-2.58 ± 0.25
ACGGAGCAAUAUUACGCUUA	-2.71 ± 0.17	-1.03 ± 0.11
ACGGAGCAAUAUUACGUUAG	-2.74 ± 0.18	-2.5 ± 0.33
UACGAGCAAUAUUACGUCCU	-2.87 ± 0.22	-1.38 ± 0.19
UUCAAGCAAUAUUACGAUGA	-0.963 ± 0.097	0.0199 ± 0.092
CAACAGCAAUAUUACGCCUG	-1.23 ± 0.088	-0.914 ± 0.11
ACUAAGCAAUAUUACGCUGG	-2.82 ± 0.19	-2.93 ± 0.31
AUUCAGCAAUAUUACGCCGU	-0.349 ± 0.15	0.177 ± 0.14
GUAGAGCAAUAUUACGGGAU	-2.01 ± 0.098	-1.19 ± 0.12
CGAAAGCAAUAUUACGCGAU	-2.86 ± 0.21	-2.15 ± 0.34
CUGCAGCAAUAUUACGGCGA	-0.954 ± 0.14	-0.847 ± 0.13
CACAAGCAAUAUUACGCGAA	-3.43 ± 0.17	-2.44 ± 0.14
GUGCAGCAAUAUUACGUUUC	-3.02 ± 0.11	-0.289 ± 0.11
CCCAAGCAAUAUUACGCCGG	-3.22 ± 0.29	-2.35 ± 0.32
CCAAAGCAAUAUUACGAACA	-3.48 ± 0.22	-3.23 ± 0.28
GAAGAGCAAUAUUACGUAGG	-3.14 ± 0.33	-1.99 ± 0.19
AACUAGCAAUAUUACGUCAC	-2.87 ± 0.18	–
CCACAGCAAUAUUACGAGAA	-2.74 ± 0.26	-3.69 ± 0.39

Sequence	self-splicing fitness (ln) (30 °C)	self-splicing fitness (ln) (37 °C)
ACUAAGCAAUAUUACGUCAC	-3.64 ± 0.19	-2.91 ± 0.27
CAGAAGCAAUAUUACGGAAG	-1.65 ± 0.077	-1.35 ± 0.095
GCGCAGCAAUAUUACGGCGC	-2.58 ± 0.21	-1.98 ± 0.24
CCGUAGCAAUAUUACGCACG	-2.02 ± 0.096	-1.53 ± 0.13
ACCUAGCAAUAUUACGGCUA	-2.93 ± 0.13	-2.65 ± 0.17
CGAAAGCAAUAUUACGAAUG	-0.194 ± 0.057	0.263 ± 0.08
GCUUAGCAAUAUUACGACCC	-0.525 ± 0.22	-0.569 ± 0.38
AUAAAGCAAUAUUACGCCUG	0.243 ± 0.077	-0.132 ± 0.09
AUGCAGCAAUAUUACGGCGA	-0.313 ± 0.1	0.239 ± 0.13
UUGAAGCAAUAUUACGCUUC	-2.86 ± 0.49	-2.06 ± 0.39
AAGAAGCAAUAUUACGUGAG	-1.35 ± 0.046	-0.828 ± 0.075
CGUGAGCAAUAUUACGAUAG	-1.13 ± 0.1	-0.217 ± 0.15
GACAAGCAAUAUUACGUCCG	-1.98 ± 0.27	-2.47 ± 0.28
AGCGAGCAAUAUUACGCGUA	-2.95 ± 0.34	-1.7 ± 0.18
CCUUAGCAAUAUUACGCAGU	-3.81 ± 0.23	-2.32 ± 0.23
GUUGAGCAAUAUUACGAUGU	-2.43 ± 0.21	-1.03 ± 0.18
UCCCAGCAAUAUUACGCGCG	-3.27 ± 0.17	-2.98 ± 0.24
UGACAGCAAUAUUACGGCGC	-2.47 ± 0.15	-1.25 ± 0.15
UCGAAGCAAUAUUACGAAUA	-1.96 ± 0.2	-1.76 ± 0.3
GUUGAGCAAUAUUACGAUGG	-3.31 ± 0.47	-2.7 ± 0.29
AAGAAGCAAUAUUACGAAGU	-2.48 ± 0.16	-2.12 ± 0.21
UCUCAGCAAUAUUACGUAAA	-1.82 ± 0.15	-1.04 ± 0.2
CGUGAGCAAUAUUACGAUGU	-1.56 ± 0.16	-2.29 ± 0.25
CUGUAGCAAUAUUACGGGCA	–	-2.5 ± 0.49
CCAGAGCAAUAUUACGUUUC	-3.23 ± 0.22	-3.61 ± 0.31
GUCUAGCAAUAUUACGGCGA	-0.49 ± 0.22	-0.132 ± 0.21

Sequence	self-splicing fitness (ln) (30 °C)	self-splicing fitness (ln) (37 °C)
GGGAAGCAAUAUUACGGGUA	-0.928 ± 0.2	-2.25 ± 0.23
GUCUAGCAAUAUUACGACAU	-0.643 ± 0.014	-0.146 ± 0.032
CCUCAGCAAUAUUACGUGUC	-3.35 ± 0.13	-2.48 ± 0.2
UGCCAGCAAUAUUACGUCGG	-4.72 ± 0.41	-2.68 ± 0.25
GUCGAGCAAUAUUACGCGUG	-1.25 ± 0.16	-1.24 ± 0.21
GACCAGCAAUAUUACGAAAC	-1.43 ± 0.099	0.296 ± 0.11
CCGAAGCAAUAUUACGGCCA	-2.76 ± 0.17	-2.3 ± 0.18
UACGAGCAAUAUUACGUACC	–	-1.17 ± 0.36
CGCUAGCAAUAUUACGGGCA	-0.187 ± 0.07	-0.269 ± 0.079
CCGAAGCAAUAUUACGCUGU	-3.74 ± 0.32	-2.84 ± 0.4
UAAUAGCAAUAUUACGUAAA	-3.19 ± 0.2	-1.88 ± 0.19
UAAAAGCAAUAUUACGCAGA	-2.11 ± 0.093	-1.17 ± 0.086
CUGAAGCAAUAUUACGCGAC	-1.46 ± 0.086	-1.14 ± 0.1
GUGGAGCAAUAUUACGGUAU	-2.04 ± 0.23	-1.71 ± 0.27
UAAUAGCAAUAUUACGUGAA	-1.38 ± 0.1	-1.22 ± 0.14
UAAAAGCAAUAUUACGCACC	-2.48 ± 0.11	-1.49 ± 0.12
GGAUAGCAAUAUUACGCGGA	-2.65 ± 0.43	-1.57 ± 0.31
UGGAAGCAAUAUUACGUGUA	-2.12 ± 0.099	-0.482 ± 0.1
UCGAAGCAAUAUUACGGCUA	-2.29 ± 0.15	-1.41 ± 0.099
CAACAGCAAUAUUACGCUAA	-2.36 ± 0.098	-2.11 ± 0.12
AAAUAGCAAUAUUACGGGGG	-2.94 ± 0.36	-2.11 ± 0.31
GGAAAGCAAUAUUACGUCAA	-1.7 ± 0.19	-0.985 ± 0.18
UGGGAGCAAUAUUACGGGGA	-2.94 ± 0.32	-2.9 ± 0.29
UGCUAGCAAUAUUACGGACA	-0.668 ± 0.098	0.41 ± 0.12
UCUCAGCAAUAUUACGGUAC	-3.18 ± 0.35	-2.52 ± 0.34
